Biological target: self-lipid accumulated in leukemia cells peptide on CD1c (human)
Assay: mLPA titration on K562-CD1c cells; CD69 on transduced Jurkat 76 b2m- cells (FIG. 5B); highest of the three TCRs titrated; full-length, on cells
Conditions: chains Valpha:Vbeta

- EC50 of peptide: 100 µg/mL
B1: TCR DN4.99 (protein)
chain 1: AQTVTQSQPEMSVQEAETVTLSCTYDTSESDYYLFWYKQPPSRQMILVIRQEAYKQQNATENRFSVNFQKAAKSFSLKISDSQLGDAAMYFCAYRSPLNTGTASKLTFGTGTRLQVTL
chain 2: DVKVTQSSRYLVKRTGEKVFLECVQDMDHENMFWYRQDPGLGLRLIYFSYDVKMKEKGDIPEGYSVSREKKERFSLILESASTNQTSMYLCASSPWVSSYEQYFGPGTRLTVT
